Source: the NTF2 design screens of Basanta et al. (2020)

Test: protease stability score; higher = more stable; yeast display proteolysis, trypsin and chymotrypsin;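 note: log10 excess protease needed over predicted unfolded state with 0 meaning unfolded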

Q: For “DDEAVRAMKRWMDALKTGDPDHLKNNIDPNANIDVGDKRVHGREQIMTMVEKELHEIKITITSINFEDHGDKAVVIINYIRDHNGRPQSNRATLEAEVHNGRIKELKMKDDK”, which protease stability score is on record?
A: The protease stability score was 0.468.

Q: Which protease stability score does the source give for “DEEMEKRWEEWLDAVTTGDESRVREYMDPNVRYNYGDKHYTGREEIAHDTVREVKRIRIEIKTMSNDDQGEHVRVRFNRVKNDNGEPKEEVLVVEFTQENGRITEATQHEDR” here?
A: The protease stability score was -0.004.

Q: Which protease stability score does the source give for “DEEVKSRADEFIKALKTGDPETISRLMDPNAQVEVGDKTIHGRENIMREIHNLKHRMNLSMEINNVDVQGDTVNIDAVVRFTHNGKPSEHKVDIQVVAQGDKIDHVVFDSTK” here?
A: The protease stability score was 1.22.

Q: Which protease stability score does the source give for “DEDQVEVMRELWRAYEDGADDQLKKLVDPNARFEVGDKHIEGREEYARDMQRQRKEIRVHYREISIENREGRLHIDYIYQRTHNGQPQTVRQVVEVDIKNGVVQRQRVQDVS” here?
A: The protease stability score was 0.474.

Q: Which protease stability score does the source give for “DEESRAQSFMSKFNDNLRRGDPEKLKTYMDPNVKVQVGEKRLNGREQAARFWVEIARHVDHISVEFKSLKVTGDKIKAKAIVVLDVNGQKRRQDVVLYAQIQGDTIRLKKVDAP” here?
A: The protease stability score was 1.07.

Q: Which protease stability score does the source give for “DHDKQEFWNHLVEIFKSGNEDDWRKNFDPNAKWHIGDKRVHGREEAVEDFRRRREELRQNIESFTVDARGDKVTVHQVFVVEINGHPRRMSVNIRAKVHNGQIKEMDVRLSDEDKKKEKG” here?
A: The protease stability score was 0.478.

Q: For “DEEKLRRMAERLIRAFDQGDRKRMEDNMDPNVELQVGETVFHGREQVTKALYELRKQVDHFELKSVDIKGEKVVVHVILNINGKHVEMNWVFEAHDGKVKEIKLNPDNQREAET”, which protease stability score is on record?
A: The protease stability score was 2.15.

Q: For “DEEAAKLMRKMQQAVRSNNPEEVQRMMDPNASAKYGDKEVHGREEIATHLVKETRRMHIHYDVEHITVDNGRADVTADVQQEHNGKPERRKYKVHIEVRGDKLVHLRFETRK”, which protease stability score is on record?
A: The protease stability score was 0.06.

Q: Which protease stability score does the source give for “EESLEHIVRTMLEQIRRGDPRDLKEMFPENARIEYGDRSIHGREEYAKTMEHKRRQARYHFQVKSIRNNGNKVELVMEVEDNHNGNPSTRRVKLTIVFHNGRIQNVEQTNKP” here?
A: Its protease stability score is 1.03.

Q: For “DRRETAKEVMKKISDILKENDENRLEDLMDPNAKVNVGDKRVHGRREAANQMVEEHTRYDHMDMDIRRIDVDGDKIIVIFTVTLTNNGKTDTKNVVIYFTVHNGRVQITRIRHK”, which protease stability score is on record?
A: Its protease stability score is -0.157.

Q: For “DHHHARELLTRVIRALITGDEKKVADQIDPNAEFQYGDKTFHGRDQVRRFVKEWKKHVDHVELKTYDARGDKAKAIFVVDHNGHKKQVVLQLKVENGRVKSIRITDG”, which protease stability score is on record?
A: Its protease stability score is 1.74.

Q: For “DEESLDHLRKVLEKNDPDQLTELMDPDATAVIGNTEVHGREKVVTIMRRIYERADSIHIDRFSHQGDRLVADMQVNINGKKMRYEYVIRVHNGRIKYVKFHVTSEDVERDLTRAVS”, which protease stability score is on record?
A: The protease stability score was 1.67.

Q: With “DEENLDAARRLIDALKNNDPDHAMENADKDVRVHIGDWHVHGREDMSRLIKELVDEMRVDVKDVKTRKDGETAVITIDAVFHVNGEPKRDTFTMNVKAHNGHVQRIHARVSEEDVRKLKQ” as the sequence, how does the protease stability score read?
A: The protease stability score was -0.086.

Q: Which protease stability score does the source give for “DDDKRANQFFRDMLRVFKNNNEKEAEKLFPPDANQNVGEERVHGREQFRKEFVDDARNVDHWEARIVDLDVKNGRIVIRFEFVKDVNGRKNKDVRTLTVVNHNGRLVIERVNSG” here?
A: Its protease stability score is 0.882.

Q: With “DEEDAQTLQRVLNHGDPDEWVRLADENVHARVGDKTYSGREHLKTFWHKLREQVDEIEVKSVDISGDRVQADIIYVVNGKRIRVTMVAHVNNGRIKEYKIHYRNEEVRDQLREAQS” as the sequence, how does the protease stability score read?
A: Its protease stability score is 0.793.

Q: Which protease stability score does the source give for “DDTTRAKEWAEELNRIYRNGDPKELEKQMDKDVRLIIGEKHIHGRSQAMNWMRELMKKADHIELRIHDVKVQGENVTVVVVYRINVNGRDVQRRVIIVAEVHNGHLKIKEMHES” here?
A: The protease stability score was 1.88.

Q: Which protease stability score does the source give for “DEEDVKTMIRIINTGDPDKFEKYFDPNASVRIGDHTFKGNKQVSEFIRRMRRKADHIEVKRVKTTNGRADIDLVVTFNGREIRFHVHAEAHNGKAERQELKVTDPNQQKELNNLVH” here?
A: The protease stability score was 0.837.

Q: With “DEDAFRVWRRLLSAIRDGDEDKVRNQADENATATIGDKTWHGMTTLAHELVHEARNLRFTQRITHYSVDNGRVNADYRFTKNENGRPQEDRVLVRFVAHNGQLKSVHNTKIS” as the sequence, how does the protease stability score read?
A: Its protease stability score is 0.131.

Q: With “DEKTERDQARKLIHILEEGDEEKMANLMDENAHIQVGDTTYSGREDVRRFMQSWSERVDRFSVHSITAHNGKIDIDVEFVVNGRKVQMDLRFHVENGRIKTDKFQFRDEDKFKDMQS” as the sequence, how does the protease stability score read?
A: The protease stability score was 0.295.

Q: With “DEEVKDFAEKMLKNWHTGNWQHFAKLLDENAKIVIGDKRYHGTENFERMADSIQKQMSIRIESMSVEVHGEKAKFSATVVENHNGNPTRFHISAEVTVRGDKVDHFNQQNDS” as the sequence, how does the protease stability score read?
A: Its protease stability score is 1.04.

Q: Which protease stability score does the source give for “DEEEEKQLEDIWKENDWQKWANDADPNVRVNIGDETLHGREDLQRWAQLVRKRYDHVKIESVRFHNGRADVEVNVVVDGEQFRYKLTIQLHNGRVKHMKIQATDEQVKTLLDQMRS” here?
A: The protease stability score was 1.59.

Q: Which protease stability score does the source give for “DDEDVNRHAESISRALERGDEERLLELLDENVTVEYGDKRVHGREEIERFLREFHRHADHIKVDRVKARGNKVRIRAVNDYDGRKVDYVFHFQFENGRVRKVKIEEK” here?
A: The protease stability score was 1.29.

Q: With “DNDAMRQANTLVEILNTGDPDRFVEYVDPNVDIKIGDKSIHGREDARRWVTELKRQMHIHLSVKRVDVEGEHLNLHADQVNDENGQPDKDHVLIIMRFHNGRVKVLKQEHKS” as the sequence, how does the protease stability score read?
A: The protease stability score was 0.53.

Q: With “DEESLRKFAKRVFRALQTGNPEDIHRLFDKDAHFVVGDKEVHGREQAIKFLSHIRRRADRISLKRMSVRGDKVSIDLQMTVDGHRTRFIVYIQVHNGRARRLKIEEN” as the sequence, how does the protease stability score read?
A: Its protease stability score is 1.57.

Q: With “DQQDVDRFTEFLEAVERGDEDRLRELMDKDAKQKVGDKTIEGSEKQVNELNDRARRMRIVLEVHDVKVHNGRLEARADLLVNVNGQPVRDDVVVRVQVHNGKITHVEMHFPEEFKRQMRR” as the sequence, how does the protease stability score read?
A: The protease stability score was 0.858.

Q: With “DDDADRRARKLDQARKEGDPDKMRKNMDPNVRMQIGDQEWSGRETIANKLATDLKRMDIEITIKRYTWHNGTADIDADETFNVDGRPNSDKVRMEVHFHNGRVEHQILRVPEEFKHRLHK” as the sequence, how does the protease stability score read?
A: Its protease stability score is -0.115.

Q: With “EDRDQAKHIIKEIMRAIQTGDRKHAMRQVDPNVRIHVGDKVLEGREEFMKWVKDLRDDVDHFHLRIHDMHVENGQLTADAEFVVDHNGQRRKQRMDVVFLVHGDKVRLLRLQEK” as the sequence, how does the protease stability score read?
A: Its protease stability score is 1.4.

Q: For “EDENRSNIEDMIRAWNQNNPDEWRELADPNVKVQIGEKSIRGREEIAKDLKQMHKEIEVHFNLKRVRVQGDKAEVEMEFSNNHNGKPRSDNVVYDVLVDNGRIKSVKQNQVS”, which protease stability score is on record?
A: Its protease stability score is -0.141.

Q: For “DDHDAKRAAKHVENGDPEQITNLFDEDARVHIGDFRIHGREDAKKWADHYRDQVDHLEYEDYRISGDTVVIVFQINVNGKRVRLRLEFRVHNGRIKEMTVEFTSEDDEKRVLKIMS”, which protease stability score is on record?
A: Its protease stability score is 0.531.

Q: With “DEEAERIAEEFIRAQQTGDKDRLRKLMDPNARANVGDKRYHGMERWAKDVARTMHEQRVEIKDLKISVQGNKADVHIDLVVDHNGQPRRFDMRLDFRFNNGTIKEVSYDDKR” as the sequence, how does the protease stability score read?
A: Its protease stability score is 0.391.

Q: For “DDRLREVFEHIVELFKTGNPEELSRNVDPNARYQYGDKELHGRDHYRREVKDLIDTMRYEQEVDKVQKRGEKVRIEAEARHKENGRPNEFTFVIEFKAHNGKVKHEVQHESS”, which protease stability score is on record?
A: Its protease stability score is -0.15.

Q: For “DHEETFRKLLHDLDEAMRRGDTKRIQDLADENVQLEVGDKTIHGREEFAKFWMDLQKRVDHLELHVEHIHVSGDRIRAKIVLVFHHNGQTRTRSAQVVLVQENGRNVFTKIQFN”, which protease stability score is on record?
A: The protease stability score was 1.17.

Q: With “DTELKDQIKRFLSERNSGNPQKMVEQMDPNANMSVGDKSVRGREQVSEQAEREKRELHYRVRSVDISVNGDKVKVKINVEREHNGRPFTMTLDLTIRAHNGRLTRVEVSLSEDDKREIKR” as the sequence, how does the protease stability score read?
A: The protease stability score was 0.521.

Q: With “DHRVEEVFRRYLEAFQDNNPEKAMRLVDPNAKLSVGDTTLDGREDIKKFVRTRHNEQRVKYEIKQIEVDGDKIRVVADLKNQHNGTPDRDTVKMSASVRNGKIKDLKQTTDK” as the sequence, how does the protease stability score read?
A: Its protease stability score is -0.132.

Q: For “DEKKIKDLLLKLIEMYVSGNKEEVKKVGKDDVELHAGNQTYHGYEQMAKMAEKLKRYGVKLQITDAKVEGDKLTAKVDFHYGGETQKLEFVVQADGGKVDRMKIELSEEVVKVARKG”, which protease stability score is on record?
A: The protease stability score was 0.377.

Q: With “DEEAIKVQEEIQKQEEKGNEENVEKNMDENVKLRVGDKDLEGRSEVSKDVRRRKDEMRFQYLHMSYHSNGETIRVNIEMSSNHNGRPDTRRFDATFHIHNGKLTEYSKESSQ” as the sequence, how does the protease stability score read?
A: Its protease stability score is 0.161.
